Paper PMC3291989

Molecular target: catalase (PktA) from Psychrobacter piscatorii T-3 (Psychrobacter piscatorii T-3)
Assay: SEC; gel filtration on two Protein PAK 300 columns, 0.1 M potassium phosphate buffer (pH 7.0), against mass standards; native mass compared with the subunit mass by SDS-PAGE

Question: For “catalase (PktA) from Psychrobacter piscatorii T-3 (enzyme)”, which stoichiometry N is on record?
Answer: The stoichiometry N was 4.
